Laboratory results as given in publication PMC12376267 (Chemistry (Weinheim an Der Bergstrasse, Germany), 2025).
Positions of bridges follow the written chain, without caps; N, C: chain ends.

Biological target: T1, Recombinant mouse NELL2 (neural epidermal growth factor-like like 2) (mouse, UniProt Q61220 25-819)
T1 sequence (looked up): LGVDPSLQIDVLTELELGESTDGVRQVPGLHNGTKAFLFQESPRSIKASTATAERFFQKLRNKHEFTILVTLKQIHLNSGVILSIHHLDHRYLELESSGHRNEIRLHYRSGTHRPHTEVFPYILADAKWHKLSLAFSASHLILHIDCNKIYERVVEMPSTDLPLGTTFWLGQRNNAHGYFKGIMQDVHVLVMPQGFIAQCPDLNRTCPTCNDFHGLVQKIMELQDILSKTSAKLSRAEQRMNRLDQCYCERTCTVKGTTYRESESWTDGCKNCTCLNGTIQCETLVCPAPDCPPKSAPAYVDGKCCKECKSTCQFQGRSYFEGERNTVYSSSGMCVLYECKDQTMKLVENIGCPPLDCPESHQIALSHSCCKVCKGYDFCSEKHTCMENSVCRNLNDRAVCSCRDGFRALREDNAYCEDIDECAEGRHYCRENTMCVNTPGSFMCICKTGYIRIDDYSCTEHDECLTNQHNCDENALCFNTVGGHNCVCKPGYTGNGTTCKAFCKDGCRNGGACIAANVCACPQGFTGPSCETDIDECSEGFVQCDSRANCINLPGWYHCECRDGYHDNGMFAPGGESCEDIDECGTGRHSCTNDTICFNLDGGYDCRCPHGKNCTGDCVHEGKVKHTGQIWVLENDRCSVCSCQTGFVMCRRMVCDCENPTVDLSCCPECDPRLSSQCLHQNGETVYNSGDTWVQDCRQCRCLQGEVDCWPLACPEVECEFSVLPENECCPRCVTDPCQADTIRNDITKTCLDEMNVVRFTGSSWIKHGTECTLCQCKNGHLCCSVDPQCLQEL
Assay: SPR

B1: Synthetic NICOL with the native SS bond pairing 3 (mouse NELL2-interacting cofactor for lumicrine signaling) (natural protein)
chain: EPATGSAVPAQSRPCVDCHAFEFMQRALQDLRKTAYSLDARTETLLLQAERRALCACWPAGR
modifications: disulfide 15-55, 18-57
Q: Which Kd does the source give for B1 here?
A: 61.7 nM

Q: And the koff?
A: 0.00134 s⁻¹

Q: What about the kon of the same binder?
A: 23500 M⁻¹ s⁻¹

B2: Synthetic NICOL with the SS isomer 4 (mouse NICOL, non-native SS bond pairing) (natural protein)
chain: B1 chain
modifications: disulfide 15-57, 18-55
Q: For B2, which Kd is on record?
A: 145 nM

Q: And the koff?
A: 0.00157 s⁻¹

Q: And the kon?
A: 13800 M⁻¹ s⁻¹
